What all share (assay type): biochemical
One assay relates to PKC. Kind of assay: In vitro phosphorylation by PKC (average of isoforms alpha, epsilon, delta, theta). The note with it: average of PKC-alpha, -epsilon, -theta, normalized to best substrate. As to the method:
(§1) The conditions of the kinase assay and the amount of active kinase used varied with the kinase and with the accuracy needed. For a typical experiment, 5-20 ng of kinase was used per well and each peptide pool was assayed in duplicate wells. Note that the absolute amount of kinase used was not usually a critical parameter, because the desired information related to specificity of the kinase not its absolute activity, and robustness of the assay depends on comparisons of the same amount of kinase on different peptides. The combination of kinase concentration and assay duration was modified to assure that the stoichiometry of peptide phosphorylation never exceeded 5%. The choice of kinase buffer depended on the kinase being analyzed. For studies of PKC, 100 mM HEPES, 0.05% Triton-X100, 1 mM CaCl2, 20 mM MgCl2, 0.2 mg/ml phosphatidyl serine (Avanti Polar Lipids), PMA 100 ng/ml was typically used. The lipid stock was prepared by transferring 3 mg phosphatidyl serine into iced mixture of 450 μl water plus 50 μl of 10% Triton-X100, sonicating 10 times on ice for 1 sec each.
(§2) The kinase reaction mixture was assembled by sequential addition to a tube held on ice of: 5 μl peptide (100 μM for final concentration of 10 μM), 15 μl of kinase (typically 5 ng/well, in appropriate kinase buffer), 30 μl of ATP (1 uCi/well of ^32P-gamma ATP in a stock of 167 μM cold ATP in the kinase buffer; for final concentration for 100 μM ATP). The mixture was rapidly warmed to desired reaction temperature (30° C. for PKC) and incubated for the desired duration (usually 10 minutes). The kinase assay was terminated by transfer to 4° C. water batch, and rapid addition of an equal volume (50 μl) of stop solution [0.1M ATP+0.1M EDTA in water, pH 8].
(§3) The peptides were then captured from the reaction mixture by transfer to a Reacti-Bind Streptavidin High Binding Capacity Coated Plates (HBC) (Pierce Biotechnology) as follows. The HBC plates were pre-rinsed three times with PBS/Tween PBS/Tween20 0.05% (PBS/Tween). Part of all of the reaction mixture was then transferred wells of a HBC plate pre-filled with 90 μl of phosphate-buffered saline (PBS); typically each aliquots of each phosphorylation reaction were transferred to duplicate HBC plates to assure accuracy by additional replication
(§4) For kinase assays done at the standard peptide concentration of 10 μM, the peptide concentration in the reaction mixture becomes 5 μM after addition of the stop solution; consequently 10 μl of the reaction (50 pMoles of peptide) was transferred to the HBC plate. More generally, the amount of reaction mixture transferred was estimated to be about 50 pMoles of peptide. […] The HBC plates were incubated for 0.5 to 1.5 hr at room temperature for complete binding of biotinylated peptides to plate-bound streptavidin. The HBC plates were then washed extensively with PBS/Tween. Five washes were done routinely and additional wash steps were added if the wash solution removed from the plate had measurable radioactivity as detected using a Geiger counter. This step is essential to obtaining a good the signal to noise ratio because the fraction of radioactivity incorporated in the peptides was a tiny fraction of the total in the reaction mixture. The wells were air-dried. A volume of 40-50 μl of microScint-20 (Packard Instruments) was added to each well. The plates were covered with stick-on film sheet. Radioactive emissions were measured in a TopCount NXT Microplate Scintillation and Luminescence Counter (Packard Instruments). Typically samples were counted for 5 minutes (or more) to improve the signal to noise ratio when counts were low.
Many peptides that are good substrates for PKC enzymes were identified using the methods of the invention. For example, Tables 4 and 5 provide a listing of peptides identified as potentially useful kinase substrates. […]

For a further assay, the target named is T1, PKC-alpha (Homo sapiens, UniProt P17252).
T1 construct: purchased Calbiochem
Kind of assay: In vitro kinase assay: peptide phosphorylation by PKC-alpha. The note with it: normalized to best substrate. Here is the method: (§5) Catalytically active preparations of the kinases of interest were either purchased or prepared. Purchased and tested active kinase preparations including the following: PKC-alpha, PKC-delta, PKC-epsilon, PKC-zeta, PKC-mu, PKA, PKG from Calbiochem, ROK alpha/ROCK-II, active from Upstate Biotechnology, and AKT1 from Panvera.
as §1, §2, §3
as §4, with “low. […]” for “low.”

Another assay has as its target T2, PKC-zeta (Homo sapiens, UniProt Q05513).
T2 construct: purchased Calbiochem
T2 sequence (Q05513 1-592): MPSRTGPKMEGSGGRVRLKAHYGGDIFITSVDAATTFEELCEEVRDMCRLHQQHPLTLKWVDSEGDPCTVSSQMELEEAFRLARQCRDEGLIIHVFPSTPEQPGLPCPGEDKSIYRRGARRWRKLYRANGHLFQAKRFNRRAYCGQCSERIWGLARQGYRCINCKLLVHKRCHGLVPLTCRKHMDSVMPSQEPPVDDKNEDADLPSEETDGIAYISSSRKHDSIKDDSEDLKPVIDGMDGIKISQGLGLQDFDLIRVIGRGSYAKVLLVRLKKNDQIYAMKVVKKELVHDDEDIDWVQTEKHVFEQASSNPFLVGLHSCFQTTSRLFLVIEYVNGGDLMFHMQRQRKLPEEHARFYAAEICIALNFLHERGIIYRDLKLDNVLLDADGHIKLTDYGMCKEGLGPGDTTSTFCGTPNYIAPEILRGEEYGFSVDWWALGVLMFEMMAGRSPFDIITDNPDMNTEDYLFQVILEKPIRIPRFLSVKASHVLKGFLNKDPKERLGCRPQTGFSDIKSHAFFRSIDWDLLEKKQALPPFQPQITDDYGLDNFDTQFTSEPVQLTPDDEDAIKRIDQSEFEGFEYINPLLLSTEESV
Kind of assay: In vitro kinase assay: peptide phosphorylation by PKC-zeta. The note with it: normalized to best substrate. As to the method: as §5, §1, §2, §3
as §4, with “low. […]” for “low.”

As to 76 (HVRRRRGTFKRSKLRARD) [compound 76], in the assay with PKC, the PKC average amounted to 91%. Also, the PKC alpha phosphorylation with PKC-alpha was found to be 62%. Further, the PKC-zeta phosphorylation with PKC-zeta was 41%.
In the same order, the values of 77 (KKKKRASFKRKSSKKG) [compound 77] are 80%, 100% and 60%.
In the same order, the values of 78 (KFARKSTRRSIRLPE) [compound 78] are 63%, 69% and 100%.
For the substance 79 (NRKKKRTSFKRKA) [compound 79], the PKC average in the assay on PKC is listed as 60%. The PKC alpha phosphorylation with PKC-alpha was 50%. In addition, the PKC-zeta phosphorylation in the assay with PKC-zeta amounted to 18%.
80 (KKKKKRFSFKKSFKL) [compound 80]: in the assay on PKC, the PKC average was found to be 56%. Besides, the PKC alpha phosphorylation in the assay with PKC-alpha is 65%. In the assay with PKC-zeta, the PKC-zeta phosphorylation is 16%.
In the same order, the values of 82 (PRLIRRGSKKRPAR) [compound 82] are 56%, 61% and 38%.
As for 83 (RKIPKRPGSVHRTPSRQ) [compound 83], the PKC average in the assay on PKC came out at 55%. Moreover, the PKC alpha phosphorylation in the assay with PKC-alpha was determined as 41%. Moreover, the PKC-zeta phosphorylation with PKC-zeta was 4%.
As for 84 (QKKSRLRRRASQLKI) [compound 84], the PKC average in the assay with PKC came out at 53%. In addition, the PKC alpha phosphorylation in the assay with PKC-alpha was found to be 39%. In addition, the PKC-zeta phosphorylation in the assay with PKC-zeta turned out to be 19%.
For the substance 85 (RFARKGSLRQKNV) [compound 85], the PKC average in the assay with PKC is recorded as 52%. In the assay with PKC-alpha, the PKC alpha phosphorylation is on record as 42%. Moreover, the PKC-zeta phosphorylation in the assay with PKC-zeta stood at 56%.
In the same order, the values of 86 (RQRKRKLSFRRRTDKD) [compound 86] are 48%, 47% and 28%.
As to 89 (EYLERRASRRRAV) [compound 89], the PKC average in the assay on PKC came to 41%. The PKC alpha phosphorylation in the assay with PKC-alpha is given as 37%. Moreover, in the assay with PKC-zeta, the PKC-zeta phosphorylation came out at 14%.
In the same order, the values of 90 (AQIVKRASLKRGKQ) [compound 90] are 40%, 40% and 5%.
In the same order, the values of 92 (DGQKRKKSLRKKLD) [compound 92] are 38%, 36% and 2%.
In the same order, the values of 93 (AARKKRISVKKKQEQ) [compound 93] are 37%, 34% and 1%.
Consider 94 (KLAVGRHSFSRRSGV) [compound 94], for which the PKC average with PKC came out at 36%. Besides, the PKC alpha phosphorylation with PKC-alpha is 34%. Besides, the PKC-zeta phosphorylation with PKC-zeta is listed as 10%.
In the same order, the values of 95 (KKKFRTPSFLKKSKK) [compound 95] are 33%, 34% and 5%.
96 (RGFLRSASLGRRASFHLE) [compound 96]: in the assay with PKC, the PKC average came to 33%. For the same substance, in the assay with PKC-alpha, the PKC alpha phosphorylation came out at 40%. Moreover, the PKC-zeta phosphorylation in the assay with PKC-zeta is recorded as 22%.
In the same order, the values of 99 (AGWRKKTSFRKPKED) [compound 99] are 27%, 37% and 10%.
In the same order, the values of 100 (WKGKRRSKARKKRK) [compound 100] are 26%, 14% and 8%.
In the same order, the values of 101 (GAPPRRSSIRNAH) [compound 101] are 23%, 32% and 3%.
Turning to 102 (AGSFKRNSIKKIV) [compound 102], the PKC average with PKC was determined as 23%. In addition, the PKC alpha phosphorylation in the assay with PKC-alpha was 35%. For the same substance, the PKC-zeta phosphorylation with PKC-zeta was 2%.
Consider 103 (LLKKRDSFRTPRDSKLE) [compound 103], for which the PKC average in the assay on PKC is recorded as 22%. The PKC alpha phosphorylation in the assay with PKC-alpha is recorded as 32%. The PKC-zeta phosphorylation in the assay with PKC-zeta turned out to be 8%.
In the same order, the values of 104 (EKIKRSSLKKVDSLKK) [compound 104] are 22%, 34% and 3%.
In the same order, the values of 105 (ALRRPSLRREADD) [compound 105] are 21%, 26% and 4%.
As to 106 (EILSRRPSYRKILND) [compound 106], the PKC average in the assay on PKC stood at 21%. For the same substance, in the assay with PKC-alpha, the PKC alpha phosphorylation is 23%. Besides, the PKC-zeta phosphorylation with PKC-zeta was found to be 15%.
In the same order, the values of 107 (QKRHARVTVKYDRRE) [compound 107] are 19%, 18% and 1%.
For the substance 108 (KATTKKRTLRKNDRK) [compound 108], in the assay on PKC, the PKC average is recorded as 16%. In the assay with PKC-alpha, the PKC alpha phosphorylation is 19%. In addition, in the assay with PKC-zeta, the PKC-zeta phosphorylation was 1%.
In the same order, the values of 109 (KEVVRTDSLKGRRGR) [compound 109] are 16%, 21% and 2%.
In the same order, the values of 110 (EGGDRRASGRRK) [compound 110] are 15%, 30% and 3%.
In the same order, the values of “111 (KKKRFSFKKSFKLSGFSFKK) [compound 111]” are 14%, 11% and 9%.
